Laboratory results taken from patent US20170101454A1 (Novo Nordisk, published 2017).
One block for each binder: values may come before it. Starred links: 1 amine or outer side, 2 acyl side, 3 side chain; linkers in the order of their positions; H or OH if unused. Non-standard residues stand in square brackets, D forms with d. Groups on a side chain read outwards from the residue. No end group written: not given here. *: point of attachment. C18 diacid = O=C(O)CCCCCCCCCCCCCCCCC(=O)*; γGlu = O=C(O)[C@H](CCC(=O)[*:2])N[*:1]; Ac4c = NC1(C(=O)O)CCC1; AEEA = NCCOCCOCC(=O)O; Aib = CC(C)(N)C(=O)O

Tests used:
human GLP-1 receptor [1] = biological target: T1, human GLP-1 receptor (human, UniProt P43220 24-463); experiment: cell-based or functional assay
human glucagon receptor [2] = biological target: T2, human glucagon receptor (human, UniProt P47871 26-477); experiment: cell-based or functional assay
T2 sequence (P47871 26-477): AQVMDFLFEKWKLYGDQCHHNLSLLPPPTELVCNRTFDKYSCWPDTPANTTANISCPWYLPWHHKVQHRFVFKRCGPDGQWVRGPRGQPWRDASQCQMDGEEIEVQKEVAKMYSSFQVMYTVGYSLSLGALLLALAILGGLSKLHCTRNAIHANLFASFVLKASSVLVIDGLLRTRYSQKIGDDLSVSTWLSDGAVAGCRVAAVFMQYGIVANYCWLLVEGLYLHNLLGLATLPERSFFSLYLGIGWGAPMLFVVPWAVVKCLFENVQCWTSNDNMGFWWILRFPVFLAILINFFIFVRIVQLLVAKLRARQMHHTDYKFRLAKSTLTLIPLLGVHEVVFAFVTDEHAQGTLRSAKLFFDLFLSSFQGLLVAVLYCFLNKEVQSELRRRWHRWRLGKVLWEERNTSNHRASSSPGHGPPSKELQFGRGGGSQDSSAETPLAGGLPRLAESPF

human GLP-1 receptor [3] = biological target: T1, human GLP-1 receptor; experiment: displacement of [125I]-GLP-1-(7-36)NH2 from BHK membranes with human GLP-1R, SPA, no serum albumin
human glucagon receptor [4] = biological target: T2, human glucagon receptor; experiment: displacement of [125I]-glucagon from BHK membranes with human glucagon receptor, SPA, no serum albumin

B1: N^ε28-[(4S)-4-carboxy-4-[[(4S)-4-carboxy-4-[[2-[2-[2-[[2-[2-[2-[[(4S)-4-carboxy-4-[[(4S)-4-carboxy-4-(17-carboxyheptadecanoylamino)butanoyl]amino]butanoyl]amino … (peptide)
peptide: H[Ac4c]QGTFTSDLSRYLESRRAREFVQWLIK([γGlu-γGlu-AEEA-AEEA-γGlu-γGlu-C18 diacid])T-NH2
modifications: N-terminus assumed
SMILES: CC[C@H](C)[C@H](NC(=O)[C@H](CC(C)C)NC(=O)[C@H](Cc1c[nH]c2ccccc12)NC(=O)[C@H](CCC(N)=O)NC(=O)[C@@H](NC(=O)[C@H](Cc1ccccc1)NC(=O)[C@H](CCC(=O)O)NC(=O)[C@H](CCCNC(=N)N)NC(=O)[C@H](C)NC(=O)[C@H](CCCNC(=N)N)NC(=O)[C@H](CCCNC(=N)N)NC(=O)[C@H](CO)NC(=O)[C@H](CCC(=O)O)NC(=O)[C@H](CC(C)C)NC(=O)[C@H](Cc1ccc(O)cc1)NC(=O)[C@H](CCCNC(=N)N)NC(=O)[C@H](CO)NC(=O)[C@H](CC(C)C)NC(=O)[C@H](CC(=O)O)NC(=O)[C@H](CO)NC(=O)[C@@H](NC(=O)[C@H](Cc1ccccc1)NC(=O)[C@@H](NC(=O)CNC(=O)[C@H](CCC(N)=O)NC(=O)C1(NC(=O)[C@@H](N)Cc2c[nH]cn2)CCC1)[C@@H](C)O)[C@@H](C)O)C(C)C)C(=O)N[C@@H](CCCCNC(=O)CC[C@H](NC(=O)CC[C@H](NC(=O)COCCOCCNC(=O)COCCOCCNC(=O)CC[C@H](NC(=O)CC[C@H](NC(=O)CCCCCCCCCCCCCCCCC(=O)O)C(=O)O)C(=O)O)C(=O)O)C(=O)O)C(=O)N[C@H](C(N)=O)[C@@H](C)O
notes: also called Chem. 17; Chem 17
GLP-1R EC50 (pM) [Assay (I)(a)], CRE luciferase reporter, BHK cells (human GLP-1 receptor [1]): 4 pM
GlucagonR EC50 (pM), [Assay (I)(b)], CRE luciferase reporter, BHK cells (human glucagon receptor [2]): 45 pM
IC50 (human GLP-1 receptor [3]): 0.1 nM
IC50 (human glucagon receptor [4]): 4.3 nM

Binder: H[Aib]QGTFTSDLSRYLDARRARDFVQWLIK([γGlu-γGlu-γGlu-C18 diacid])T-NH2 (also called Chem. 14; Chem 14)
GLP-1R EC50 (pM) [Assay (I)(a)], CRE luciferase reporter, BHK cells (human GLP-1 receptor [1]): 2 pM
GlucagonR EC50 (pM), [Assay (I)(b)], CRE luciferase reporter, BHK cells (human glucagon receptor [2]): 9 pM
IC50 (human GLP-1 receptor [3]): 0.1 nM
IC50 (human glucagon receptor [4]): 6.4 nM

B4: N^ε28-[(4S)-4-carboxy-4-[[(4S)-4-carboxy-4-[[2-[2-[2-[[2-[2-[2-[[(4S)-4-carboxy-4-[[(4S)-4-carboxy-4-(17-carboxyheptadecanoylamino)butanoyl]amino]butanoyl]amino … (peptide)
peptide: H[Aib]QGTFTSDLSKYLESRRAREFVQWLIK([γGlu-γGlu-AEEA-AEEA-γGlu-γGlu-C18 diacid])T-NH2
modifications: N-terminus assumed
SMILES: CC[C@H](C)[C@H](NC(=O)[C@H](CC(C)C)NC(=O)[C@H](Cc1c[nH]c2ccccc12)NC(=O)[C@H](CCC(N)=O)NC(=O)[C@@H](NC(=O)[C@H](Cc1ccccc1)NC(=O)[C@H](CCC(=O)O)NC(=O)[C@H](CCCNC(=N)N)NC(=O)[C@H](C)NC(=O)[C@H](CCCNC(=N)N)NC(=O)[C@H](CCCNC(=N)N)NC(=O)[C@H](CO)NC(=O)[C@H](CCC(=O)O)NC(=O)[C@H](CC(C)C)NC(=O)[C@H](Cc1ccc(O)cc1)NC(=O)[C@H](CCCCN)NC(=O)[C@H](CO)NC(=O)[C@H](CC(C)C)NC(=O)[C@H](CC(=O)O)NC(=O)[C@H](CO)NC(=O)[C@@H](NC(=O)[C@H](Cc1ccccc1)NC(=O)[C@@H](NC(=O)CNC(=O)[C@H](CCC(N)=O)NC(=O)C(C)(C)NC(=O)[C@@H](N)Cc1c[nH]cn1)[C@@H](C)O)[C@@H](C)O)C(C)C)C(=O)N[C@@H](CCCCNC(=O)CC[C@H](NC(=O)CC[C@H](NC(=O)COCCOCCNC(=O)COCCOCCNC(=O)CC[C@H](NC(=O)CC[C@H](NC(=O)CCCCCCCCCCCCCCCCC(=O)O)C(=O)O)C(=O)O)C(=O)O)C(=O)O)C(=O)N[C@H](C(N)=O)[C@@H](C)O
notes: also called Chem. 25; Chem 25
GLP-1R EC50 (pM) [Assay (I)(a)], CRE luciferase reporter, BHK cells (human GLP-1 receptor [1]): 2 pM
GlucagonR EC50 (pM), [Assay (I)(b)], CRE luciferase reporter, BHK cells (human glucagon receptor [2]): 52 pM
IC50 (human GLP-1 receptor [3]): 0.1 nM
IC50 (human glucagon receptor [4]): 11.2 nM

Further binders by falling IC50 (human GLP-1 receptor [3]), results first:

GLP-1R EC50 (pM) [Assay (I)(a)], CRE luciferase reporter, BHK cells (human GLP-1 receptor [1]): 2 pM
GlucagonR EC50 (pM), [Assay (I)(b)], CRE luciferase reporter, BHK cells (human glucagon receptor [2]): 42 pM
IC50 (human GLP-1 receptor [3]): 0.4 nM
IC50 (human glucagon receptor [4]): 10.1 nM
B2: N^ε28-[(4S)-4-carboxy-4-[[(4S)-4-carboxy-4-[[2-[2-[2-[[2-[2-[2-[[(4S)-4-carboxy-4-[[(4S)-4-carboxy-4-(17-carboxyheptadecanoylamino)butanoyl]amino]butanoyl]amino … (peptide)
peptide: H[Ac4c]QGTFTSDISKYLESRRAREFVQWLIK([γGlu-γGlu-AEEA-AEEA-γGlu-γGlu-C18 diacid])T-NH2
modifications: N-terminus assumed
SMILES: CC[C@H](C)[C@H](NC(=O)[C@H](CC(=O)O)NC(=O)[C@H](CO)NC(=O)[C@@H](NC(=O)[C@H](Cc1ccccc1)NC(=O)[C@@H](NC(=O)CNC(=O)[C@H](CCC(N)=O)NC(=O)C1(NC(=O)[C@@H](N)Cc2c[nH]cn2)CCC1)[C@@H](C)O)[C@@H](C)O)C(=O)N[C@@H](CO)C(=O)N[C@@H](CCCCN)C(=O)N[C@@H](Cc1ccc(O)cc1)C(=O)N[C@@H](CC(C)C)C(=O)N[C@@H](CCC(=O)O)C(=O)N[C@@H](CO)C(=O)N[C@@H](CCCNC(=N)N)C(=O)N[C@@H](CCCNC(=N)N)C(=O)N[C@@H](C)C(=O)N[C@@H](CCCNC(=N)N)C(=O)N[C@@H](CCC(=O)O)C(=O)N[C@@H](Cc1ccccc1)C(=O)N[C@H](C(=O)N[C@@H](CCC(N)=O)C(=O)N[C@@H](Cc1c[nH]c2ccccc12)C(=O)N[C@@H](CC(C)C)C(=O)N[C@H](C(=O)N[C@@H](CCCCNC(=O)CC[C@H](NC(=O)CC[C@H](NC(=O)COCCOCCNC(=O)COCCOCCNC(=O)CC[C@H](NC(=O)CC[C@H](NC(=O)CCCCCCCCCCCCCCCCC(=O)O)C(=O)O)C(=O)O)C(=O)O)C(=O)O)C(=O)N[C@H](C(N)=O)[C@@H](C)O)[C@@H](C)CC)C(C)C
notes: also called Chem. 26; Chem 26

GLP-1R EC50 (pM) [Assay (I)(a)], CRE luciferase reporter, BHK cells (human GLP-1 receptor [1]): 4 pM
GlucagonR EC50 (pM), [Assay (I)(b)], CRE luciferase reporter, BHK cells (human glucagon receptor [2]): 70 pM
IC50 (human GLP-1 receptor [3]): 0.1 nM
IC50 (human glucagon receptor [4]): 13.6 nM
B3: N^ε29-[(4S)-4-carboxy-4-[[(4S)-4-carboxy-4-[[2-[2-[2-[[2-[2-[2-[[(4S)-4-carboxy-4-(17-carboxyheptadecanoylamino)butanoyl]amino]ethoxy]ethoxy]acetyl]amino]ethoxy … (peptide)
peptide: H[Aib]QGTFTSDLSKYLDARRARDFVQWLINK([γGlu-γGlu-AEEA-AEEA-γGlu-C18 diacid])-NH2
modifications: N-terminus assumed
SMILES: CC[C@H](C)[C@H](NC(=O)[C@H](CC(C)C)NC(=O)[C@H](Cc1c[nH]c2ccccc12)NC(=O)[C@H](CCC(N)=O)NC(=O)[C@@H](NC(=O)[C@H](Cc1ccccc1)NC(=O)[C@H](CC(=O)O)NC(=O)[C@H](CCCNC(=N)N)NC(=O)[C@H](C)NC(=O)[C@H](CCCNC(=N)N)NC(=O)[C@H](CCCNC(=N)N)NC(=O)[C@H](C)NC(=O)[C@H](CC(=O)O)NC(=O)[C@H](CC(C)C)NC(=O)[C@H](Cc1ccc(O)cc1)NC(=O)[C@H](CCCCN)NC(=O)[C@H](CO)NC(=O)[C@H](CC(C)C)NC(=O)[C@H](CC(=O)O)NC(=O)[C@H](CO)NC(=O)[C@@H](NC(=O)[C@H](Cc1ccccc1)NC(=O)[C@@H](NC(=O)CNC(=O)[C@H](CCC(N)=O)NC(=O)C(C)(C)NC(=O)[C@@H](N)Cc1c[nH]cn1)[C@@H](C)O)[C@@H](C)O)C(C)C)C(=O)N[C@@H](CC(N)=O)C(=O)N[C@@H](CCCCNC(=O)CC[C@H](NC(=O)CC[C@H](NC(=O)COCCOCCNC(=O)COCCOCCNC(=O)CC[C@H](NC(=O)CCCCCCCCCCCCCCCCC(=O)O)C(=O)O)C(=O)O)C(=O)O)C(N)=O
notes: also called Chem. 20; Chem 20
